Measurements as given in publication PMC3285688, “Active Site Mutations Change the Cleavage Specificity of Neprilysin” (PLoS ONE, 2012).
Numbering of substitutions follows the chain as printed. In names and notes the source's numbering stands.

Columns and labels:
Format in all cases: biochemical
insulin B chain [1] = test: Rate of insulin B chain hydrolysis (HPLC); settings: 15 µM insulin B chain, 37°C, 20 mM MES buffer, pH 6.5; disappearance of substrate by HPLC; at least triplicate
Method: (§1) Cleavage of physiological peptides was measured via reverse phase high performance liquid chromatography (HPLC) following incubation of the purified NEP or its mutants with 15 µM insulin B chain (Sigma Aldrich), 24 µM Aß1–40 (Anaspec), or 64 µM leu-ENK (Sigma) in 100 µL of 20 mM MES, pH 6.5, at 37°C. Reactions were run in triplicate. HPLC was carried out in a Vydac C4 column using a linear gradient from 0.1% trifluoroacetic acid (TFA) in 95% water, 5% acetonitrile to 0.1% TFA in 50% acetonitrile/water at a flow rate of 1 mL/min. Peptides and hydrolysis products were detected at 214 nm and quantified by measuring peak areas. Peptides obtained from HPLC were analyzed on an Applied Biosystems 4800 MALDI TOF/TOF Proteomics Analyzer at the University of Kentucky Proteomics core. This facility is supported in part by grant P20RR020171 from the NIH/NCRR.
(§2) Statistical analysis comparing wild-type NEP and its mutants was performed with Prism 4 software using a two-tailed paired t-test with a 95% confidence interval.

leu-ENK [2] = test: Dual substrate assay: leu-ENK hydrolysis in presence of insulin B chain; settings: 15 µM insulin B chain and 64 µM leu-ENK together, 37°C, 20 mM MES buffer, pH 6.5; for leu-ENK hydrolysis, activity relative to the uninhibited value: numbers in parenthesis
Method: (§3) The rate of cleavage of a substrate mixture is determined by both the kcat for that substrate as well by the affinity for the substrate. […] This is expected, given that each peptide acts as a competitive inhibitor of the other. […] That is the ratio for leu-ENK/insulin B chain cleavage is 3 for NEP^S546E compared to 6 for wild-type NEP.
as §1

insulin B chain [3] = test: Insulin B chain as alternate substrate (competitive) inhibitor of Glut-Ala-Ala-Phe-MNA hydrolysis (Dixon plot); settings: insulin B chain 1 to 40 µM as competitive inhibitor of Glut-Ala-Ala-Phe-MNA hydrolysis by the enzyme form, 37°C, 20 mM MES, pH 6.5, ID50 converted to Ki
Method: (§4) Kinetic constants for NEP and its mutants were obtained using the assay conditions noted above, but with Glut-Ala-Ala-Phe-MNA varied from 20 to 500 µM. Typically 12 data points were obtained. The data were fit to the Michaelis-Menten equation using Prism4 software. The Ki for insulin B chain was obtained by measuring the rate of Glut-Ala-Ala-Phe-MNA hydrolysis in the presence of varying concentrations of insulin B chain from 1 to 40 µM. Data were fit to a Dixon plot (1/rate versus [insulin B chain]) using Prism4 software and the ID50 obtained as the –x intercept, where ID50 corresponds to the concentration of insulin producing 50% inhibition. The actual Ki was obtained from the equation: ID50 = Ki (1+ [Glut-Ala-Ala-Phe-MNA]/KmGlut-Ala-Ala-Phe-MNA), [33].

[4] = test system: leu-ENK and insulin B chain; test: Dual substrate assay: substrate preference leu-ENK versus insulin B chain; settings: for Substrate preference leu-ENK/insulin B chain (in words): dual substrate assay, versus wild-type; for Ratio leu-ENK insulin B chain: ratio of rates, 15 µM insulin B chain and 64 µM leu-ENK together
Method: as §3, §1

Aß1–40 = test: Rate of Aß1–40 hydrolysis (HPLC); settings: 24 µM Aß1–40, 37°C, 20 mM MES buffer, pH 6.5; disappearance of substrate by HPLC; at least triplicate
Method: as §1, §2

leu-ENK [5] = test: Rate of leu-ENK hydrolysis (HPLC); settings: 64 µM leu-ENK, 37°C, 20 mM MES buffer, pH 6.5; disappearance of substrate by HPLC; at least triplicate
Method: as §1, §2

insulin B chain [6] = test: Dual substrate assay: insulin B chain hydrolysis in presence of leu-ENK; settings: 15 µM insulin B chain and 64 µM leu-ENK together, 37°C, 20 mM MES buffer, pH 6.5; for Insulin B Chain hydrolysis, activity relative to the uninhibited value: numbers in parenthesis
Method: as §3, §1

[7] = Hydrolysis of synthetic substrate Glut-Ala-Ala-Phe-MNA by NEP and mutants (fluorogenic); settings: 37°C, 20 mM MES buffer, pH 6.5; for Specific Activity (Glut-Ala-Ala-Phe-MNA cleavage): 100 µM Glut-Ala-Ala-Phe-MNA, fluorescence ex 340 nm, em 425 nm; for Km: Glut-Ala-Ala-Phe-MNA 20 to 500 µM, Michaelis-Menten fit
Method: Reactions of 400 µl contained 100 µM Glut-Ala-Ala-Phe-MNA, 1 µg of aminopeptidase and 15 to 100 ng of NEP or mutant NEP depending on their activity in 20 mM MES buffer, pH 6.5. Activity was monitored with a Spectra Max Gemini XS plate reader using an excitation wavelength of 340 nm and an emission wavelength of 425 nm.
as §4

B1: NEP^F563M: neprilysin active site mutant, Phe563 to methionine (protein, UniProt P08473 2-750, looked up, variant F563M)
Neprilysin: GKSESQMDITDINTPKPKKKQRWTPLEISLSVLVLLLTIIAVTMIALYATYDDGICKSSDCIKSAARLIQNMDATTEPCTDFFKYACGGWLKRNVIPETSSRYGNFDILRDELEVVLKDVLQEPKTEDIVAVQKAKALYRSCINESAIDSRGGEPLLKLLPDIYGWPVATENWEQKYGASWTAEKAIAQLNSKYGKKVLINLFVGTDDKNSVNHVIHIDQPRLGLPSRDYYECTGIYKEACTAYVDFMISVARLIRQEERLPIDENQLALEMNKVMELEKEIANATAKPEDRNDPMLLYNKMTLAQIQNNFSLEINGKPFSWLNFTNEIMSTVNISITNEEDVVVYAPEYLTKLKPILTKYSARDLQNLMSWRFIMDLVSSLSRTYKESRNAFRKALYGTTSETATWRRCANYVNGNMENAVGRLYVEAAFAGESKHVVEDLIAQIREVFIQTLDDLTWMDAETKKRAEEKALAIKERIGYPDDIVSNDNKLNNEYLELNYKEDEYFENIIQNLKFSQSKQLKKLREKVDKDEWISGAAVVNAFYSSGRNQIVFPAGILQPPMFSAQQSNSLNYGGIGMVIGHEITHGFDDNGRNFNKDGDLVDWWTQQSASNFKEQSQCMVYQYGNFSWDLAGGQHLNGINTLGENIADNGGLGQAYRAYQNYIKKNGEEKLLPGLDLNHKQLFFLNFAQVWCGTYRPEYAVNSIKTDVHSPGNFRIIGTLQNSAEFSEAFHCRKNSYMNPEKKCRVW
- Rate of hydrolysis of Insulin B Chain (insulin B chain [1]): 0.21 ± 0.01 pmol/min/ng
- leu-ENK hydrolysis rate, dual substrate assay (leu-ENK [2]): 0.69 ± 0.11 pmol/min/ng
- leu-ENK hydrolysis, activity relative to the uninhibited value (leu-ENK [2]): 0.57
- Ki (insulin B chain [3]): 1200 ± 100 nM
- Substrate preference leu-ENK/insulin B chain (in words) [4]: no change in overall substrate preference
- Ratio leu-ENK insulin B chain [4]: 6.3
- Rate of hydrolysis of Aß1–40 (Aß1–40): 85 ± 3 fmol/min/ng
- Rate of hydrolysis of leu-ENK (leu-ENK [5]): 1.21 ± 0.22 pmol/min/ng
- Insulin B Chain hydrolysis rate, dual substrate assay (insulin B chain [6]): 0.11 ± 0.02 pmol/min/ng
- Insulin B Chain hydrolysis, activity relative to the uninhibited value (insulin B chain [6]): 0.52
- Specific Activity (Glut-Ala-Ala-Phe-MNA cleavage) [7]: 19.2 ± 0.4 pmol/min/ng
- Km [7]: 87 ± 8 µM

B2: NEP^F563I: neprilysin active site mutant, Phe563 to isoleucine (protein, UniProt P08473 2-750, looked up, variant F563I)
Neprilysin: B1 Neprilysin with M563I
- Rate of hydrolysis of Insulin B Chain (insulin B chain [1]): 0.13 ± 0.02 pmol/min/ng
- leu-ENK hydrolysis rate, dual substrate assay (leu-ENK [2]): 0.62 ± 0.03 pmol/min/ng
- leu-ENK hydrolysis, activity relative to the uninhibited value (leu-ENK [2]): 0.58
- Ki (insulin B chain [3]): 2500 ± 900 nM
- Substrate preference leu-ENK/insulin B chain (in words) [4]: shift in substrate preference toward leu-ENK
- Ratio leu-ENK insulin B chain [4]: 31.0
- Rate of hydrolysis of Aß1–40 (Aß1–40): 43 ± 1 fmol/min/ng
- Rate of hydrolysis of leu-ENK (leu-ENK [5]): 1.06 ± 0.17 pmol/min/ng
- Insulin B Chain hydrolysis rate, dual substrate assay (insulin B chain [6]): 0.02 ± 0.01 pmol/min/ng
- Insulin B Chain hydrolysis, activity relative to the uninhibited value (insulin B chain [6]): 0.15
- Specific Activity (Glut-Ala-Ala-Phe-MNA cleavage) [7]: 17.7 ± 0.6 pmol/min/ng
- Km [7]: 83 ± 4 µM
